Measurements: IntAct's records for PubMed 22215984

B1: Regulatory protein RapF (Bacillus subtilis), P71002 (parent)
chain: MTGVISSSSIGEKINEWYMYIRRFSIPDAEYLRREIKQELDQMEEDQDLHLYYSLMEFRHNLMLEYLEPLEKMRIEEQPRLSDLLLEIDKKQARLTGLLEYYFNFFRGMYELDQREYLSAIKFFKKAESKLIFVKDRIEKAEFFFKMSESYYYMKQTYFSMDYARQAYEIYKEHEAYNIRLLQCHSLFATNFLDLKQYEDAISHFQKAYSMAEAEKQPQLMGRTLYNIGLCKNSQSQYEDAIPYFKRAIAVFEESNILPSLPQAYFLITQIHYKLGKIDKAHEYHSKGMAYSQKAGDVIYLSEFEFLKSLYLSGPDEEAIQGFFDFLESKMLYADLEDFAIDVAKYYHERKNFQKASAYFLKVEQVRQLIQGGVSLYEIEV
partner: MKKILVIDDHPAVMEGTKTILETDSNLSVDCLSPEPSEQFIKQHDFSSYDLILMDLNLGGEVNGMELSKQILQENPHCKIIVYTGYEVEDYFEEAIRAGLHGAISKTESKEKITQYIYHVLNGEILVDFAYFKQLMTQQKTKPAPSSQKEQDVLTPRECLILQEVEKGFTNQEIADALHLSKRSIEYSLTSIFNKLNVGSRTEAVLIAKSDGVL
B2: Transcriptional regulatory protein ComA (Bacillus subtilis), P14204 (parent)
chain: B1 partner
partner: B1 chain

Variants of: B1
Settings: with cmpa_bacsu comA

effect of a mutation on the interaction	Variant
disrupting interaction	F24A
decreasing interaction	Q78A
disrupting interaction	L67A
decreasing interaction	P27A
disrupting interaction	D28A

Variants of: B2
Settings: with rapf_bacsu rapF

effect of a mutation on the interaction	Variant
decreasing interaction	N194A
decreasing interaction	T190A
decreasing interaction	R183A
decreasing interaction	Y187A
